Consider 91 sequences from the supplement of paper PMC9112550, “Optimization of the antimicrobial peptide Bac7 by deep mutational scanning” (BMC Biology, 2022).

This series deals with Escherichia coli TOP10. The experiment in a line: shrunken log2 fold change of peptide-encoding DNA abundance (4.5 h post-induction vs induction); higher = less antimicrobial activity (less host growth inhibition). To be noted: time post-induction: 4.5 h; library: site-saturation at positions 5, 18, 19, 20.
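Further: peptides expressed intracellularly from a pBAD plasmid library in pooled LB shake-flask culture, induced with 0.3% L-arabinose, DNA abundance read by NGS, three biological replicates, DESeq2 with apeglm shrinkage.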

In the case of RRIRPRPPRLPRPRPRPHHFPRP, the “shrunken log2 fold change” value is -0.0294.
Then RRIRCRPPRLPRPRPRPECHPRP, with 0.0568; and RRIRLRPPRLPRPRPRPMGVPRP, with -0.0231; and RRIRVRPPRLPRPRPRPKIMPRP, with -0.193.
Then RRIRHRPPRLPRPRPRPFVVPRP, with -0.16; and RRIRNRPPRLPRPRPRPWCMPRP, with -0.312; and RRIRTRPPRLPRPRPRPFMWPRP, with -0.119.
Then RRIRSRPPRLPRPRPRPLYVPRP, with -0.467; and RRIRMRPPRLPRPRPRPQCSPRP, with 0.113; and RRIRCRPPRLPRPRPRPEDMPRP, with 0.176.
Consider RRIRMRPPRLPRPRPRPPNLPRP, for which the “shrunken log2 fold change” value was 0.0707.
Then RRIRKRPPRLPRPRPRPPIEPRP, with 0.223.
Then RRIRYRPPRLPRPRPRPTRPPRP, with 0.472; and RRIRCRPPRLPRPRPRPASFPRP, with -0.176; and RRIRDRPPRLPRPRPRPGWGPRP, with 0.687.
With RRIRIRPPRLPRPRPRPSPDPRP, the “shrunken log2 fold change” value was 0.127.
Then RRIRQRPPRLPRPRPRPMKSPRP, with 0.0232; and RRIRERPPRLPRPRPRPTAWPRP, with 0.378.
RRIRWRPPRLPRPRPRPIMNPRP: the “shrunken log2 fold change” value is -0.473.
Then RRIRERPPRLPRPRPRPNTTPRP, with 0.123.
The same measure for RRIRVRPPRLPRPRPRPRWNPRP: 0.132; for RRIRWRPPRLPRPRPRPCENPRP: 0.285.
With RRIRYRPPRLPRPRPRPCIQPRP, the “shrunken log2 fold change” value is -0.172.
The same measure for RRIRTRPPRLPRPRPRPRPLPRP: 0.295; for RRIRGRPPRLPRPRPRPTANPRP: 1.09.
The same measure for RRIRIRPPRLPRPRPRPHHRPRP: -0.46; for RRIRQRPPRLPRPRPRPWRAPRP: 0.0749; for RRIRGRPPRLPRPRPRPEDWPRP: 1.45.
The same measure for RRIRNRPPRLPRPRPRPRVIPRP: -0.21; for RRIRPRPPRLPRPRPRPWWAPRP: 0.00677; for RRIRFRPPRLPRPRPRPAPAPRP: 0.674.
In the case of RRIRIRPPRLPRPRPRPFVEPRP, the “shrunken log2 fold change” value is -0.37.
The same measure for RRIRLRPPRLPRPRPRPMMLPRP: -0.335.
Turning to RRIRRRPPRLPRPRPRPPYVPRP, the “shrunken log2 fold change” value was determined as 0.181.
The same measure for RRIRYRPPRLPRPRPRPLMKPRP: -0.179; for RRIRIRPPRLPRPRPRPSLSPRP: -0.692; for RRIRWRPPRLPRPRPRPQGFPRP: -0.0818.
The same measure for RRIRGRPPRLPRPRPRPFCHPRP: 0.418; for RRIRYRPPRLPRPRPRPQPTPRP: 0.0156; for RRIRIRPPRLPRPRPRPFQAPRP: -0.0938.
Consider RRIRQRPPRLPRPRPRPYAKPRP, for which the “shrunken log2 fold change” value was -0.122.
For RRIRHRPPRLPRPRPRPYFMPRP, the “shrunken log2 fold change” value is -0.489.
On to RRIRSRPPRLPRPRPRPIYNPRP, for which the “shrunken log2 fold change” value was -0.785.
Then RRIRRRPPRLPRPRPRPEKFPRP, with 0.171.
The same measure for RRIRARPPRLPRPRPRPFNKPRP: -0.0214.
Then RRIRWRPPRLPRPRPRPDHFPRP, with -0.0288; and RRIRPRPPRLPRPRPRPPLIPRP, with -0.338.
Consider RRIRYRPPRLPRPRPRPWSAPRP, for which the “shrunken log2 fold change” value was -0.237.
On to RRIRWRPPRLPRPRPRPHITPRP, for which the “shrunken log2 fold change” value was -0.699.
The same measure for RRIRKRPPRLPRPRPRPMMMPRP: 0.619.
The same measure for RRIRMRPPRLPRPRPRPQWPPRP: -0.132; for RRIRQRPPRLPRPRPRPRYTPRP: -0.126.
Then RRIRCRPPRLPRPRPRPANAPRP, with -0.0408.
Turning to RRIRDRPPRLPRPRPRPKMSPRP, the “shrunken log2 fold change” value is -0.0119.
The same measure for RRIRCRPPRLPRPRPRPWVDPRP: -0.00886; for RRIRVRPPRLPRPRPRPNQAPRP: 0.0159; for RRIRKRPPRLPRPRPRPHQKPRP: -0.0675.
The same measure for RRIRQRPPRLPRPRPRPWMSPRP: -0.0167; for RRIRRRPPRLPRPRPRPKTEPRP: 0.452; for RRIRWRPPRLPRPRPRPGKWPRP: 0.202.
On to RRIRHRPPRLPRPRPRPGCSPRP, for which the “shrunken log2 fold change” value is -0.08.
The same measure for RRIRHRPPRLPRPRPRPNPTPRP: -0.193; for RRIRKRPPRLPRPRPRPGFQPRP: 0.138.
For RRIRDRPPRLPRPRPRPFWPPRP, the “shrunken log2 fold change” value worked out at 0.227.
Then RRIRHRPPRLPRPRPRPDCMPRP, with -0.291; and RRIRTRPPRLPRPRPRPKFGPRP, with -0.00436; and RRIRTRPPRLPRPRPRPGCWPRP, with 0.453.
The same measure for RRIRARPPRLPRPRPRPRISPRP: 0.0223.
Then RRIRLRPPRLPRPRPRPWTIPRP, with -0.0385; and RRIRERPPRLPRPRPRPIQQPRP, with -0.0452.
For RRIRKRPPRLPRPRPRPKGMPRP, the “shrunken log2 fold change” value was -0.00227.
The same measure for RRIRKRPPRLPRPRPRPILNPRP: -0.158; for RRIRMRPPRLPRPRPRPPPGPRP: 1.86.
With RRIRSRPPRLPRPRPRPMCAPRP, the “shrunken log2 fold change” value was 0.29.
Then RRIRQRPPRLPRPRPRPLDFPRP, with -0.0491; and RRIRFRPPRLPRPRPRPRTPPRP, with 0.534.
The same measure for RRIRDRPPRLPRPRPRPNAQPRP: 0.325.
The same measure for RRIRNRPPRLPRPRPRPRERPRP: 0.0512.
RRIRARPPRLPRPRPRPVTRPRP: the “shrunken log2 fold change” value turned out to be 0.35.
Then RRIRNRPPRLPRPRPRPYIIPRP, with -0.156.
Then RRIRFRPPRLPRPRPRPPVQPRP, with 0.3; and RRIRNRPPRLPRPRPRPKDDPRP, with 0.0456; and RRIRSRPPRLPRPRPRPIPEPRP, with 0.208.
Then RRIRWRPPRLPRPRPRPRFVPRP, with 0.139.
Turning to RRIRERPPRLPRPRPRPKEIPRP, the “shrunken log2 fold change” value is -0.357.
In the case of RRIRYRPPRLPRPRPRPARPPRP, the “shrunken log2 fold change” value stood at 0.943.
As for RRIRHRPPRLPRPRPRPSSIPRP, the “shrunken log2 fold change” value is -0.762.
Consider RRIRIRPPRLPRPRPRPAMNPRP, for which the “shrunken log2 fold change” value is -0.495.
Then RRIRTRPPRLPRPRPRPDTAPRP, with 0.0677; and RRIRRRPPRLPRPRPRPKISPRP, with 0.14; and RRIRQRPPRLPRPRPRPDIWPRP, with -0.214.
